{"source": "patent US20100279930A1", "about": "(published 2010)", "assay_in_all_cases": "125I-PP displacement", "key": {"human Y4 receptor [1]": {"biological_target": "T1, human Y4 receptor (human, UniProt P50391 1-375)", "T1 sequence (P50391 whole entry)": "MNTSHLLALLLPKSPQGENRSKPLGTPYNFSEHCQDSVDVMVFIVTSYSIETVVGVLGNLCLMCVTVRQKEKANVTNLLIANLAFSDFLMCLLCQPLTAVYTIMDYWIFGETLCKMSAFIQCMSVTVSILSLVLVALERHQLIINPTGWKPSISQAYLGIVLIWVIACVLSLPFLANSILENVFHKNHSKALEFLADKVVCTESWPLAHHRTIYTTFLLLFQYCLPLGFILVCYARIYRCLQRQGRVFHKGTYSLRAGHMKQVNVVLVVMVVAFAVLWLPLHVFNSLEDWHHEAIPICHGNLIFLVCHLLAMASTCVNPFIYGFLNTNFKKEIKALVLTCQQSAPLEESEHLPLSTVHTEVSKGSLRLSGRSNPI"}, "human Y4 receptor [2]": {"biological_target": "T1, human Y4 receptor", "remark": "listed apart in the source"}, "human Y4 receptor [3]": {"biological_target": "T1, human Y4 receptor", "remark": "listed apart in the source"}, "human Y4 receptor [4]": {"biological_target": "T1, human Y4 receptor", "remark": "listed apart in the source"}, "human Y4 receptor [5]": {"biological_target": "T1, human Y4 receptor", "remark": "listed apart in the source"}}, "note": "Read-outs that look alike come from different tables or passages of the source. No end group written: not given here.", "data": [{"binder": "APLEPVYPGDNATPEQMAQYAADLRRYINILTRPRY (ends and bridges not checked)", "note": "[compound of SEQ ID NO:259 (code 4055713)]", "values": [{"measurement": "IC50", "setting": "human Y4 receptor [1]", "result": 0.22, "unit": "nM"}]}, {"binder": "APLEPSYPGDNATPEQLAKYAAELRRYINKLTRPRY", "note": "[4058913]", "values": [{"measurement": "IC50", "setting": "human Y4 receptor [2]", "result": 0.0775, "unit": "nM"}]}, {"binder": "GAPLEPKYPGDNATPEEKAKYAAELRRYINKLTRPRY", "note": "[4061236]", "values": [{"measurement": "IC50", "setting": "human Y4 receptor [3]", "result": 0.052, "unit": "nM"}]}, {"binder": "APLEPVYPGDNATPEQMAQYAAALRRYINMLTRPRY", "note": "[compound of SEQ ID NO:277 (Ala 23, code 4055747)]", "values": [{"measurement": "IC50", "setting": "human Y4 receptor [1]", "result": 0.079, "unit": "nM"}]}, {"binder": "AAPLEPVYPGDNATPEQMAKYAADLRRYINKLTRPRY", "note": "[compound of SEQ ID NO:348 (Ala 0, Lys19, Lys 30, code 4056385)]", "values": [{"measurement": "IC50", "setting": "human Y4 receptor [4]", "result": 0.051, "unit": "nM"}]}, {"binder": "PLEPHYPGDDATPQQMAHYYSELRRYINKLTRPRY", "note": "[4457895]", "values": [{"measurement": "IC50", "setting": "human Y4 receptor [3]", "result": 0.145, "unit": "nM"}]}, {"binder": "APLEPVYPGDNATPEQMAQYAADLRRYINFLTRPRY (ends and bridges not checked)", "note": "[compound of SEQ ID NO:261 (code 4055715)]", "values": [{"measurement": "IC50", "setting": "human Y4 receptor [1]", "result": 0.13, "unit": "nM"}]}, {"binder": "GAPLEPKYPGDNATPEEMAKYAAELRRYINKLTRPRY", "note": "[4058911]", "values": [{"measurement": "IC50", "setting": "human Y4 receptor [2]", "result": 0.077, "unit": "nM"}]}, {"binder": "APLEPVYPGDNATPEQLAQYAADLRRYINMLTRPRY", "note": "[6429]", "values": [{"measurement": "IC50", "setting": "human Y4 receptor [5]", "result": 0.55, "unit": "nM"}]}, {"binder": "APLEPVYPGDNATPEQMAHYYASLRRYINMLTRPRY", "note": "[6640]", "values": [{"measurement": "IC50", "setting": "human Y4 receptor [5]", "result": 0.15, "unit": "nM"}]}, {"binder": "APLEPVYPGDNATEEELVKYFIDLRRYINMLTRPRY", "note": "[6622]", "values": [{"measurement": "IC50", "setting": "human Y4 receptor [5]", "result": 1.2, "unit": "nM"}]}, {"binder": "APLEPVYPGDDATPQQMAQYAAELRRYINMLTRPRY", "note": "[6457]", "values": [{"measurement": "IC50", "setting": "human Y4 receptor [5]", "result": 0.13, "unit": "nM"}]}, {"binder": "APLEPVYPGDNATPEQMAQYAADLRHYINMLTRPRY", "note": "[6438]", "values": [{"measurement": "IC50", "setting": "human Y4 receptor [5]", "result": 0.49, "unit": "nM"}]}, {"binder": "APLEPEYPGDNATPEQMAQYAADLRRYINMLTRPRY (ends and bridges not checked)", "note": "[compound of SEQ ID NO:276 (4055746)]", "values": [{"measurement": "IC50", "setting": "human Y4 receptor [1]", "result": 0.16, "unit": "nM"}]}, {"binder": "APLEPVYPGDNATPEELNRYYASLRRYINMLTRPRY", "note": "[6460]", "values": [{"measurement": "IC50", "setting": "human Y4 receptor [5]", "result": 0.2, "unit": "nM"}]}, {"binder": "KAPLEPVYPGDNATPEQMAQYAADLRRYINMLTRPRY", "note": "[compound of SEQ ID NO:52 (code 6647)]", "values": [{"measurement": "IC50", "setting": "human Y4 receptor [5]", "result": 0.21, "unit": "nM"}]}, {"binder": "APLEPVYPGDNATPEQMAQYAADLRRYINMLTRPRF (ends and bridges not checked)", "note": "[compound of SEQ ID NO:255 (code 4055708)]", "values": [{"measurement": "IC50", "setting": "human Y4 receptor [1]", "result": 0.16, "unit": "nM"}]}, {"binder": "APLKPVYPGDNATPEQMAQYAADLRRYINMLTRPRY", "note": "[6443]", "values": [{"measurement": "IC50", "setting": "human Y4 receptor [5]", "result": 4, "unit": "nM"}]}, {"binder": "PLEPSYPGDNATPEQLAKYAAELRRYINKLTRPRY", "note": "[4058912]", "values": [{"measurement": "IC50", "setting": "human Y4 receptor [2]", "result": 0.0495, "unit": "nM"}]}, {"binder": "APLEPVYPGDNATPEQMAQYAADLRRYINVLTRPRY (ends and bridges not checked)", "note": "[compound of SEQ ID NO:260 (code 4055714)]", "values": [{"measurement": "IC50", "setting": "human Y4 receptor [1]", "result": 0.09, "unit": "nM"}]}, {"binder": "APLEPVYPGDNATHEQMAQYAADLRRYINMLTRPRY", "note": "[6441]", "values": [{"measurement": "IC50", "setting": "human Y4 receptor [5]", "result": 0.3, "unit": "nM"}]}, {"binder": "KPLEPVYPGDNATPEQMAQYAADLRRYINMLTRPRY", "note": "[6436]", "values": [{"measurement": "IC50", "setting": "human Y4 receptor [5]", "result": 0.48, "unit": "nM"}]}, {"binder": "DAPLEPVYPGDNATPEQMAQYAADLRRYINMLTRPRY", "note": "[6652]", "values": [{"measurement": "IC50", "setting": "human Y4 receptor [5]", "result": 0.36, "unit": "nM"}]}, {"binder": "APLEPVYPGDNATPEKMAQYAADLRRYINMLTRPRY", "note": "[6466]", "values": [{"measurement": "IC50", "setting": "human Y4 receptor [5]", "result": 1.29, "unit": "nM"}]}, {"binder": "APLEPFYPGDNATPEQMAQYAADLRRYINMLTRPRY (ends and bridges not checked)", "note": "[compound of SEQ ID NO:275 (code 4055745)]", "values": [{"measurement": "IC50", "setting": "human Y4 receptor [1]", "result": 0.17, "unit": "nM"}]}, {"binder": "AAAPLEPVYPGDNATPEQMAQYAADLRRYINMLTRPRY", "note": "[6655]", "values": [{"measurement": "IC50", "setting": "human Y4 receptor [5]", "result": 0.28, "unit": "nM"}]}, {"binder": "EAPLEPVYPGDNATPEQMAQYAADLRRYINMLTRPRY", "note": "[6651]", "values": [{"measurement": "IC50", "setting": "human Y4 receptor [5]", "result": 0.35, "unit": "nM"}]}, {"binder": "APLEPVYPGDNATEEEAVRLFIDLRRYINMLTRPRY", "note": "[6621]", "values": [{"measurement": "IC50", "setting": "human Y4 receptor [5]", "result": 16, "unit": "nM"}]}, {"binder": "PAPLEPTYPGDNATPEEKAKYYSELRRYINKLTRPRY", "note": "[4061239]", "values": [{"measurement": "IC50", "setting": "human Y4 receptor [3]", "result": 0.054, "unit": "nM"}]}, {"binder": "PAPLEPKYPGDNATPEEMAKYAAELRRYIDKLTRPRY", "note": "[4061237]", "values": [{"measurement": "IC50", "setting": "human Y4 receptor [3]", "result": 0.16, "unit": "nM"}]}, {"binder": "PAPLEPKYPGDNATPEQMAKYAAELRRYINKLTRPRY", "note": "[4068672]", "values": [{"measurement": "IC50", "setting": "human Y4 receptor [3]", "result": 0.059, "unit": "nM"}]}, {"binder": "APLEPVYPGDNATPEQMAQYAADLRRYINTLTRPRY", "note": "[6437]", "values": [{"measurement": "IC50", "setting": "human Y4 receptor [5]", "result": 0.3, "unit": "nM"}]}, {"binder": "APLKPVYPGDNATPEQMAQYAADLRRYINMLTRPRY", "note": "[5920]", "values": [{"measurement": "IC50", "setting": "human Y4 receptor [5]", "result": 4.5, "unit": "nM"}]}, {"binder": "GAPLEPKYPGDNATPEEMAKYAAELRRYIDKLTRPRY", "note": "[4061238]", "values": [{"measurement": "IC50", "setting": "human Y4 receptor [3]", "result": 0.138, "unit": "nM"}]}, {"binder": "APLEPVYPGDNATPEQMAQYAKDLRRYINMLTRPRY", "note": "[6465]", "values": [{"measurement": "IC50", "setting": "human Y4 receptor [5]", "result": 0.85, "unit": "nM"}]}, {"binder": "APLEPVYPGDYATPEQMAQYAADLRRYINMLTRPRY", "note": "[6440]", "values": [{"measurement": "IC50", "setting": "human Y4 receptor [5]", "result": 0.26, "unit": "nM"}]}, {"binder": "APKEPVYPGDNATPEQMAQYAADLRRYINMLTRPRY", "note": "[6463]", "values": [{"measurement": "IC50", "setting": "human Y4 receptor [5]", "result": 0.67, "unit": "nM"}]}, {"binder": "APLEPVYPGDNATPEQMARYAADLRRYINMLTRPRY", "note": "[6606]", "values": [{"measurement": "IC50", "setting": "human Y4 receptor [5]", "result": 0.16, "unit": "nM"}]}, {"binder": "APLEPVYPGDNATPEQMAQYAADLRRYINKLTRPRY", "note": "[compound of SEQ ID NO:281 (Lys 30, code 4055855)]", "values": [{"measurement": "IC50", "setting": "human Y4 receptor [1]", "result": 0.16, "unit": "nM"}]}, {"binder": "PAPLEPKYPGDNATPEEKAKYAAELRRYINKLTRPRY", "note": "[4061235]", "values": [{"measurement": "IC50", "setting": "human Y4 receptor [3]", "result": 0.054, "unit": "nM"}]}]}
